Measurements published in patent US7081343.

Target: T7-RelA (UniProt Q04206)
Sequence (Q04206 whole entry): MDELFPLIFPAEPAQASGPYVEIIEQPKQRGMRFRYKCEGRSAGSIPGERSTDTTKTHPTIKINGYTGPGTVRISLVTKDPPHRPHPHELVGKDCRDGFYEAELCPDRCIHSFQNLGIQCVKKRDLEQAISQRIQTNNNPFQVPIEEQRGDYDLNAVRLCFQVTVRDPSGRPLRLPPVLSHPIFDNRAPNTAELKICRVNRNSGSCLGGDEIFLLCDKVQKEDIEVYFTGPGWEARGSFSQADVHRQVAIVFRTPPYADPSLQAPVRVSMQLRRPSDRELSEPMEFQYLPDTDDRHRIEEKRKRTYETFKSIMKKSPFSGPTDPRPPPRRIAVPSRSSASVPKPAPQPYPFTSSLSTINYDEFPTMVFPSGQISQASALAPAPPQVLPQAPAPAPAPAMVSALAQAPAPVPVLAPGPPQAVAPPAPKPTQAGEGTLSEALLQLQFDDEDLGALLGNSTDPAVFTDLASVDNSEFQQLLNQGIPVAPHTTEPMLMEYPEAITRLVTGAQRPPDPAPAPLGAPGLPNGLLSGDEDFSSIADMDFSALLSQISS

## p300
  acetylation of T7-RelA (anti-T7 immunoprecipitation, anti-acetylated lysine blot): Co-expression of either p300 or CBP with RelA produced dose related acetylation of T7-Rel A

## CBP
  acetylation of T7-RelA (anti-T7 immunoprecipitation, anti-acetylated lysine blot): Co-expression of either p300 or CBP with RelA produced dose related acetylation of T7-Rel A
